Substitutions are numbered along the chain they refer to. Names and notes keep the numbering of the source. Blank lines part the entries; values can stand above or below the binder they belong to.
Molecular target: T1, GST-Pex3ΔN (aa 41–455, cytosolic domain) (P. pastoris, UniProt Q92262 41-455)
T1 sequence (looked up): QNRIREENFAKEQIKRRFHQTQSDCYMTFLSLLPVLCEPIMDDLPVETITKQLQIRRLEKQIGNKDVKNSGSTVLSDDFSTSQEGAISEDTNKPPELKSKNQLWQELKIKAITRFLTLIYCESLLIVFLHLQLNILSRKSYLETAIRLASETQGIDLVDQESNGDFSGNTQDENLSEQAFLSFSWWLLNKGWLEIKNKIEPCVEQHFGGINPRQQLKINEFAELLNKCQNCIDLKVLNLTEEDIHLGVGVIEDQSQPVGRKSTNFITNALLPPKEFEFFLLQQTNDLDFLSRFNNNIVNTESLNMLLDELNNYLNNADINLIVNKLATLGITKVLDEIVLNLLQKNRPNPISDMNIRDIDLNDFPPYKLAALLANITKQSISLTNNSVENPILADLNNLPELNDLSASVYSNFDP
Assay: pull-down

binding result: binds
B1: His-Atg37ΔC (WT) (domain or fragment, P. pastoris, UniProt C4R8D7 1-278, looked up)
chain: MSESIDRVFVKAIGTIRTLSSRTGYGGLPRPPIENRVKLYGLYKQATEGDVAGVMERPLGDSPEAEAAKRKWDAWRSEQGTSKTEAKRQYISYLIDTMKQFASDTTEARELLSELEYLWNQISDVSPNDSSDSESNAGPAQLLQNHAQLLSRDISVVDDPITSSGMDPMYNPSFQRHNSSRFINASTAERLNSLSNYYSNLNPTPPLSSRRYQGSVTPRNVDFIKWQNDINNSINKLNHDLQLLANRRLQSSASDPLYSKRGSDLTHDDFVNDISSSS

binding result: binds
B2: His-Atg37ΔC acbs mutant (Y40F K44A) (domain or fragment, P. pastoris, UniProt C4R8D7 1-278, looked up)
chain: B1 chain with Y40F, K44A
